Patent publication WO2009138413A1 (dated 2009)

Columns and labels:
human IL-13 = human IL-13 (human, UniProt P35225 35-146); experiment: cell-based or functional assay
cynomolgus IL-13 = cynomolgus IL-13 (cynomolgus, UniProt Q0PW92 21-132); experiment: cell-based or functional assay
Chain of cynomolgus IL-13 (Q0PW92 entry or part of it): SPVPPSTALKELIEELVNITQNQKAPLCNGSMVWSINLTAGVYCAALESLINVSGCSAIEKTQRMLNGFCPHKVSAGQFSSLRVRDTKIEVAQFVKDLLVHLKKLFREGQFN

Chain of human IL-13 (P35225 35-146 limits assumed): as the sequence (Q0PW92 entry or part of it) above, with S1G, K10R, V42M, N67S, R83H, V100L counted along it

B1: DOM10-275-78 (VHH)
VHH: EVQLLESGGGLVQPGGSLRLSCVASGFTFDVAEMDWVRQAPGKGLEWVSTISPSRRGTYYADSVKGRFTISRDNSKNTLYLQMNSLRAEDTAVYYCAKAYTGRSLWGPGTLVTVSS
For B1, the “EC50, FIG. 1A HEK STAT6 assay with human IL-13, sample JAL050308_20p” value (human IL-13) was 2.65 nM, the “EC50, FIG. 1A HEK STAT6 assay with human IL-13, sample JAL050308_20s” value (human IL-13) was 2.42 nM and the “EC50, FIG. 1B HEK STAT6 assay with cynomolgus IL-13, sample JAL050308_20p” value (cynomolgus IL-13) was 1.37 nM. The “EC50, FIG. 1B HEK STAT6 assay with cynomolgus IL-13, sample JAL050308_20s” value (cynomolgus IL-13) was 1.37 nM.

B2: DOM10-53-474 (VHH)
VHH: GVQLLESGGGLVQPGGSLRLSCAASGFTFAWYDMGWVRQAPGKGLEWVSSIDWHGEVTYYADSVKGRFTISRDNSKNTLYLQMNSLRAEDTAVYYCATAEDEPGYDYWGQGTLVTVSS
With B2 the “EC50, FIG. 1A HEK STAT6 assay with human IL-13” value (human IL-13) was 0.72 nM and the “EC50, FIG. 1B HEK STAT6 assay with cynomolgus IL-13” value (cynomolgus IL-13) was 10.8 nM.
